The source of these data is patent publication US9441223.

In this series the target is TDP-43 (Homo sapiens) (UniProt Q13148). To be noted: reanalysis of public CLIP-seq; healthy brain; ratio rises to 2.0 in FTLD.
TDP-43 (Homo sapiens), sequence (Q13148 whole entry): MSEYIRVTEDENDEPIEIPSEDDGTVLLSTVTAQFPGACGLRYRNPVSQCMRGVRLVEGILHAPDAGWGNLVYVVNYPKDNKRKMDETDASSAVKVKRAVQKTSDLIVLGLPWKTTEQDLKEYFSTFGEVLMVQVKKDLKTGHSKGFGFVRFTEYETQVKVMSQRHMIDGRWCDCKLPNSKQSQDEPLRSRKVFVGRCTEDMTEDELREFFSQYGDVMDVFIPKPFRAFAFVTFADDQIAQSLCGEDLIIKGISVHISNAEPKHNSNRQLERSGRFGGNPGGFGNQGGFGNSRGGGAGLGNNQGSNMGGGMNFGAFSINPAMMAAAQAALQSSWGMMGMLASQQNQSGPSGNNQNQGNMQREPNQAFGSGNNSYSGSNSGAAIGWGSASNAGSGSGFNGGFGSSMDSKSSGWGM

As to UGUGU [UGUGU pentamer motif], the binding signal (RefGene/repeat motif enrichment ratio) is 1.3.
